Here are results for two molecules from paper PMC2192333 (The Journal of Experimental Medicine, 1996).

In assay [1] the test system is ICAM-1. To be noted: cited from earlier work.
Assay [2] concerns ICAM-1. Kind of assay: Adhesion of 293 cells transfected with CD11a I domain mutants/CD18 to ICAM-1Fc. To be noted: wide range of concentrations of ICAM-1, data not shown. The class given is cell-based, human.

B1: D137A (protein, UniProt P20701 26-1170, looked up, variant D137A)
Integrin alpha-L: YNLDVRGARSFSPPRAGRHFGYRVLQVGNGVIVGAPGEGNSTGSLYQCQSGTGHCLPVTLRGSNYTSKYLGMTLATDPTDGSILACDPGLSRTCDQNTYLSGLCYLFRQNLQGPMLQGRPGFQECIKGNVDLVFLFAGSMSLQPDEFQKILDFMKDVMKKLSNTSYQFAAVQFSTSYKTEFDFSDYVKRKDPDALLKHVKHMLLLTNTFGAINYVATEVFREELGARPDATKVLIIITDGEATDSGNIDAAKDIIRYIIGIGKHFQTKESQETLHKFASKPASEFVKILDTFEKLKDLFTELQKKIYVIEGTSKQDLTSFNMELSSSGISADLSRGHAVVGAVGAKDWAGGFLDLKADLQDDTFIGNEPLTPEVRAGYLGYTVTWLPSRQKTSLLASGAPRYQHMGRVLLFQEPQGGGHWSQVQTIHGTQIGSYFGGELCGVDVDQDGETELLLIGAPLFYGEQRGGRVFIYQRRQLGFEEVSELQGDPGYPLGRFGEAITALTDINGDGLVDVAVGAPLEEQGAVYIFNGRHGGLSPQPSQRIEGTQVLSGIQWFGRSIHGVKDLEGDGLADVAVGAESQMIVLSSRPVVDMVTLMSFSPAEIPVHEVECSYSTSNKMKEGVNITICFQIKSLIPQFQGRLVANLTYTLQLDGHRTRRRGLFPGGRHELRRNIAVTTSMSCTDFSFHFPVCVQDLISPINVSLNFSLWEEEGTPRDQRAQGKDIPPILRPSLHSETWEIPFEKNCGEDKKCEANLRVSFSPARSRALRLTAFASLSVELSLSNLEEDAYWVQLDLHFPPGLSFRKVEMLKPHSQIPVSCEELPEESRLLSRALSCNVSSPIFKAGHSVALQMMFNTLVNSSWGDSVELHANVTCNNEDSDLLEDNSATTIIPILYPINILIQDQEDSTLYVSFTPKGPKIHQVKHMYQVRIQPSIHDHNIPTLEAVVGVPQPPSEGPITHQWSVQMEPPVPCHYEDLERLPDAAEPCLPGALFRCPVVFRQEILVQVIGTLELVGEIEASSMFSLCSSLSISFNSSKHFHLYGSNASLAQVVMKVDVVYEKQMLYLYVLSGIGGLLLLLLIFIVLYKVGFFKRNLKEKMEAGRGVPNGIPAEDSEQLASGQEAGDPGCLKPLHEKDSESGGGKD
In the case of B1, the “binding to ICAM-1” value in the assay with ICAM-1 [1] is reported as “critical to ICAM-1 binding”.

B2: H/M53: human Ile-126 and Asn-129 replaced with murine residues Met and Lys, respectively (protein, UniProt P20701 26-1170, looked up, variant I126M N129K)
Integrin alpha-L: YNLDVRGARSFSPPRAGRHFGYRVLQVGNGVIVGAPGEGNSTGSLYQCQSGTGHCLPVTLRGSNYTSKYLGMTLATDPTDGSILACDPGLSRTCDQNTYLSGLCYLFRQNLQGPMLQGRPGFQECMKGKVDLVFLFDGSMSLQPDEFQKILDFMKDVMKKLSNTSYQFAAVQFSTSYKTEFDFSDYVKRKDPDALLKHVKHMLLLTNTFGAINYVATEVFREELGARPDATKVLIIITDGEATDSGNIDAAKDIIRYIIGIGKHFQTKESQETLHKFASKPASEFVKILDTFEKLKDLFTELQKKIYVIEGTSKQDLTSFNMELSSSGISADLSRGHAVVGAVGAKDWAGGFLDLKADLQDDTFIGNEPLTPEVRAGYLGYTVTWLPSRQKTSLLASGAPRYQHMGRVLLFQEPQGGGHWSQVQTIHGTQIGSYFGGELCGVDVDQDGETELLLIGAPLFYGEQRGGRVFIYQRRQLGFEEVSELQGDPGYPLGRFGEAITALTDINGDGLVDVAVGAPLEEQGAVYIFNGRHGGLSPQPSQRIEGTQVLSGIQWFGRSIHGVKDLEGDGLADVAVGAESQMIVLSSRPVVDMVTLMSFSPAEIPVHEVECSYSTSNKMKEGVNITICFQIKSLIPQFQGRLVANLTYTLQLDGHRTRRRGLFPGGRHELRRNIAVTTSMSCTDFSFHFPVCVQDLISPINVSLNFSLWEEEGTPRDQRAQGKDIPPILRPSLHSETWEIPFEKNCGEDKKCEANLRVSFSPARSRALRLTAFASLSVELSLSNLEEDAYWVQLDLHFPPGLSFRKVEMLKPHSQIPVSCEELPEESRLLSRALSCNVSSPIFKAGHSVALQMMFNTLVNSSWGDSVELHANVTCNNEDSDLLEDNSATTIIPILYPINILIQDQEDSTLYVSFTPKGPKIHQVKHMYQVRIQPSIHDHNIPTLEAVVGVPQPPSEGPITHQWSVQMEPPVPCHYEDLERLPDAAEPCLPGALFRCPVVFRQEILVQVIGTLELVGEIEASSMFSLCSSLSISFNSSKHFHLYGSNASLAQVVMKVDVVYEKQMLYLYVLSGIGGLLLLLLIFIVLYKVGFFKRNLKEKMEAGRGVPNGIPAEDSEQLASGQEAGDPGCLKPLHEKDSESGGGKD
On to B2, for which, in the assay with ICAM-1 [2], the “adhesion to ICAM-1, wide range of ICAM-1 concentrations” value is listed as “identical binding as that of wild-type CD11a”.
